We go through six compounds from US20110039770A1, “INHIBITORS OF PROTEIN KINASE C ISOFORMS AND USES THEREOF” (PHARMAGAP INC., priority 2005, published 2011).

As usually defined, the inhibition is the drop in the measured response relative to a control, in per cent.

Where a SMILES comes first, the peptide text is derived from it. Where no end group is shown, it is not given here. The star is where a group is joined. PNA(A) = NCCN(CC(=O)*)C(=O)Cn1cnc2c(N)ncnc21

For one data set, the system named is PKC enzymes (cPKCs). As to the kind of experiment: Phosphorylation of MARCKS peptide by endogenous PKCs in IMR-32 cells. The data set is classed as cell-based, human.
Data set [1] relates to peripheral blood lymphocytes. As to the kind of experiment: Peripheral blood lymphocyte survival and blastogenic response to mitogens. The data set is classed as cell-based. The settings on record: primary lymphocytes of pigs, mice and human.
The target of the next data set is PKC alpha (Homo sapiens, UniProt P17252). As to the kind of experiment: Kinase-Glo Luminescent Kinase Assay. The data set is classed as biochemical. The settings on record: for inhibition of PKC alpha activity (in words): Kinase-Glo. The procedure:
(§1) Compounds TIM 10, 11, 13, 14, 15, and 18-22 (see Table 28) were tested for their ability to inhibit the activity of PKC-alpha, beta 1, delta and epsilon isoforms the Kinase-Glo™ Luminescent Kinase Assay (Promega, Cat # V6712/3/4) following the manufacturer's instructions.
(In general: In Kinase-Glo more light means more ATP remaining.)

The target of the next data set is PKC delta (Homo sapiens, UniProt Q05655). As to the kind of experiment: Kinase-Glo Luminescent Kinase Assay. The data set is classed as biochemical. The settings on record: for inhibition of PKC delta activity (in words): Kinase-Glo. The procedure:
as §1

Another data set has as its target PKC beta 1 (Homo sapiens, UniProt P05771). As to the kind of experiment: Kinase-Glo Luminescent Kinase Assay. The settings on record: for inhibition of PKC beta 1 activity (in words): Kinase-Glo. Also noted: purchased. The data set is classed as biochemical. The procedure:
as §1

Another data set deals with T1, PKC epsilon (Homo sapiens, UniProt Q02156).
T1 sequence (Q02156 1-737): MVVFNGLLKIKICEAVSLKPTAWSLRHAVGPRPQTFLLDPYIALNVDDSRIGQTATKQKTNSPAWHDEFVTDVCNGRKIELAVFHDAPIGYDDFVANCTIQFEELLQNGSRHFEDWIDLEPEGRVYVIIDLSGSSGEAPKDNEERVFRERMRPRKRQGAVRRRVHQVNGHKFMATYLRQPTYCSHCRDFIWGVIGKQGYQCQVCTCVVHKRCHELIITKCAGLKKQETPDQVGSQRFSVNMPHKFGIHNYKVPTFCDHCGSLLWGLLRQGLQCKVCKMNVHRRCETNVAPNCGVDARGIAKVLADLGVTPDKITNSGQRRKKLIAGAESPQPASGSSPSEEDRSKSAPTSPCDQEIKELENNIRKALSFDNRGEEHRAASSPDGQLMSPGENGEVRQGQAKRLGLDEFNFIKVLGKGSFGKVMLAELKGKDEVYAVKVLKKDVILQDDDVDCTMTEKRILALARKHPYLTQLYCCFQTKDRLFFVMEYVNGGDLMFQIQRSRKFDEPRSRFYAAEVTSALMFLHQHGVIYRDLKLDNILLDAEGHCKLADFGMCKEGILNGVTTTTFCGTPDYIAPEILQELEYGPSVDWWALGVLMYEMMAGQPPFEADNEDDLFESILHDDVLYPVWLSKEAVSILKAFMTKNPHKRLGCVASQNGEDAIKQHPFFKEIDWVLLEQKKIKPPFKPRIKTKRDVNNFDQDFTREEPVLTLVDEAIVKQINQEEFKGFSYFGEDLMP
As to the kind of experiment: Kinase-Glo Luminescent Kinase Assay. The data set is classed as biochemical. Also noted: purchased. The procedure:
as §1

For data set [2], the system named is LS180 human colon cancer cells. As to the kind of experiment: Survival of doxorubicin-resistant colon cancer cells, trypan blue exclusion. The settings on record: 50 ng/ml; 72 hrs. The data set is classed as cell-based. The procedure:
Highly tumourigenic human colon cancer cells (LS180; ATCC # CL-187) which constitutively express multi-drug resistance (MDR) were used for this experiment. LS180 cells were seeded in 6 well plates at a density of 2×10^5. After a 24 hr recovery cells were treated with 50 ng/ml of doxorubicin, 2.5 μM compound TIM 10, or a combination of doxorubicin and compound TIM 10 (2.5 μM and 5 μM) for 72 hrs. Note that compound TIM 10 was added to the cell culture medium; no protocol was used to force the compound into the cell. The cells were then trypsinized and counted using the standard trypan blue dye exclusion assay.

Data set [3] addresses T2, PKC-α (Homo sapiens, UniProt P17252). As to the kind of experiment: Competition of PRE with PKC-α antibody binding on Western blot, Protocol A, IMR-32 lysate. The settings on record: IMR-32 cells. Also noted: endogenous PKC-α in (A) untreated human neuroblastoma (IMR-32) cells; endogenous in cells; host or cells: IMR-32 human neuroblastoma cells. The procedure: The ability of the PRE 1, 2 and 3 (see Table 3 above) to interfere with the binding of a PKC-α-specific polyclonal antibody to PKC-α was determined using the following protocol.
(§2) Cell lysates from either IMR-32 (human neuroblastoma) cells or C6Cx43 cells (rat glioma transfected cells overexpressing connexin 43) were obtained using standard protocols and the proteins of the lysate were separated by SDS PAGE electrophoresis and electrotransferred onto a nitrocellulose membrane. The membrane was incubated for 30 minutes in blocking buffer (TBST) containing the test peptide at either 5× or 20× the concentrations of the primary antibody. A primary polyclonal antibody specific for PKC-α (Santa Cruz Biotechnology, Inc., CA) was then added (15 μg/ml) and the membrane incubated for a further 45 minutes. Finally, the primary antibody was detected with a secondary antibody conjugated to alkaline phosphatase using standard procedures. The intensity of the band corresponding to PKC-α was assessed by scanning and densitometry using the Gel-Pro software (Media Cybernetics) to obtain relative band intensities (average of 3 replicas). Control assays were conducted as described above except that blocking buffer without peptide was used.
The results are expressed as relative band intensity and as a percentage of the intensity of the corresponding band in the control assay (“Relative intensity (%)”). “% inhibition” relates to the percentage of the PKC-α band that is inaccessible to the antibody.

Data set [4] addresses T2, PKC-α. As to the kind of experiment: Competition of PRE with PKC-α antibody binding, Protocol B (peptide added to cell extract before electrophoresis), IMR-32. The arrangement: endogenous PKC-α in (A) untreated human neuroblastoma (IMR-32) cells; endogenous in cells; host or cells: IMR-32 human neuroblastoma cells. The settings on record: 100 μg. The procedure:
Peptides PRE 3 and PRE 4 (see Table 4) were tested for their ability to interfere with the binding of isoform-specific polyclonal antibodies (Santa Cruz Biotechnology, Inc.) to PKC-α, PKC-βI or PKC-βII using the general protocol described in Example 3.

The target in data set [5] is T3, PKC-β (Homo sapiens, UniProt P05771).
T3 construct: PRE 2 and PRE 3 in IMR-32 Neuroblastoma Cells: Protocol A; endogenous in cells; host or cells: IMR-32 human neuroblastoma cells
As to the kind of experiment: Competition of PRE with PKC-β antibody binding, Protocol A, IMR-32 lysate. The procedure:
as §2
Peptides PRE 1, PRE 2 and PRE 3 (see Table 4) were tested for their ability to interfere with the binding of a PKC-β-specific polyclonal antibody (Santa Cruz Biotechnology, Inc.) to PKC-β using the general protocol described in Example 1. […] It is worth noting in this regard that PKC-α and PKC-β belong to the same sub-group of PKCs (cPKCs).

Data set [6] has as its target T3, PKC-β. As to the kind of experiment: Competition of PRE with PKC-β antibody binding, Protocol B, IMR-32. The settings on record: 100 μg. The procedure: The ability of the peptides PRE 2 and PRE 3 (see Table 4) to interfere with the binding of a PKC-α-specific polyclonal antibody (Santa Cruz Biotechnology, Inc.) to PKC-α was determined using a modified version of the protocol outlined above in which the test peptide was added directly to the cell extract prior to electrophoresis at a concentration of either 5× or 15× the concentration of the protein applied to each well of the gel for the Western blots (20 μg).
Peptides PRE 2 and PRE 3 (see Table 4) were tested for their ability to interfere with the binding of a PKC-β-specific polyclonal antibody (Santa Cruz Biotechnology, Inc.) to PKC-β using the general protocol described in Example 3.

T3 sequence (P05771 whole entry): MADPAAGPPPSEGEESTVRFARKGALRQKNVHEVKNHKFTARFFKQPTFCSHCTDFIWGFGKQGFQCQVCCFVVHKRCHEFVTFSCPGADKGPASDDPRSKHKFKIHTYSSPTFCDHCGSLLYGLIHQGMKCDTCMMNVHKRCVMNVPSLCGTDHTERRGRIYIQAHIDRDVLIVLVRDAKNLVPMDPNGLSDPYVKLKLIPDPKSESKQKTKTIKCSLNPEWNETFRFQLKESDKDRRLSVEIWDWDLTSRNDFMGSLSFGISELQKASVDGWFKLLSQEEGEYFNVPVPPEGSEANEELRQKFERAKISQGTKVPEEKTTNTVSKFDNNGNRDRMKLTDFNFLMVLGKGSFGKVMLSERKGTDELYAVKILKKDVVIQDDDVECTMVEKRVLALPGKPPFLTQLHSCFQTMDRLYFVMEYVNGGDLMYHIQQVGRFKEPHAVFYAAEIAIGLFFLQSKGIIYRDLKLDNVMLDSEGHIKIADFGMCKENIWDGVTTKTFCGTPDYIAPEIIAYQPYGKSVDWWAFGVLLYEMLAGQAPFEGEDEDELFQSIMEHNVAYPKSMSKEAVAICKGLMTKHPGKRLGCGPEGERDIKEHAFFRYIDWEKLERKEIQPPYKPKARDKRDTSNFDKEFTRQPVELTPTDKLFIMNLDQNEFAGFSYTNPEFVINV
PKC beta 1, sequence (P05771 whole entry): as above
PKC delta, sequence (Q05655 whole entry): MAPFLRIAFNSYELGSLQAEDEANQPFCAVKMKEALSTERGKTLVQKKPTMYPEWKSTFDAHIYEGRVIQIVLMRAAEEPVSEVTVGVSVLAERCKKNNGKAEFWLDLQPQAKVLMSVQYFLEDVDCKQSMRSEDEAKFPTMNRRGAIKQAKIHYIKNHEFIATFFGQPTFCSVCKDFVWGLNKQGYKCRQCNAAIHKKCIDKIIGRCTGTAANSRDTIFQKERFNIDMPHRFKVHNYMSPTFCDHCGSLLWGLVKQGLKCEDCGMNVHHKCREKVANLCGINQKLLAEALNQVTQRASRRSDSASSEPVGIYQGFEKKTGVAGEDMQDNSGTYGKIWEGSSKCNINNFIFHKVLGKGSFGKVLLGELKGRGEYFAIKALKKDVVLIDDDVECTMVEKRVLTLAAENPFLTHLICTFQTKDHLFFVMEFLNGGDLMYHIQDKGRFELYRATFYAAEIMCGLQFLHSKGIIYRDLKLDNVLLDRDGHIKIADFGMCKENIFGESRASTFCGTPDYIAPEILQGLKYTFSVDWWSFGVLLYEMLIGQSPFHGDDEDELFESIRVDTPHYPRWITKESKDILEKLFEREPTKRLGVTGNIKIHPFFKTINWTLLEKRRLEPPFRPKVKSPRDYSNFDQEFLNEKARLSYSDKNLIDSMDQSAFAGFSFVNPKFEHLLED

Turning to `Cn1c2ccccc2c2c3c(c4c5ccccc5n(CCC#N)c4c21)CNC3=O` [Go6976], the “inactivation of cPKCs (MARCKS phosphorylation)” value in the data set with PKC enzymes (cPKCs) (30 min) is “still very low”. The “inactivation of cPKCs (phospho-MARCKS levels)” value in the data set with PKC enzymes (cPKCs) (24 h) is reported as “obvious”.
On to `CC[C@H](C)[C@H](NC(=O)[C@H](CO)NC(=O)[C@@H](NC(=O)CNC(=O)[C@@H](NC(=O)[C@H](CC(C)C)NC(=O)[C@H](CC(N)=O)NC(=O)[C@H](CCC(N)=O)NC(=O)[C@H](C)NC(=O)[C@H](CC(=O)OC)NC(=O)[C@H](CCCCN)NC(=O)CNC(=O)CNC(=O)CNC(=O)CNC(=O)CNC(=O)CNC(=O)CNC(=O)[C@H](CC(C)C)NC(=O)[C@H](CCCNC(=N)N)NC(=O)[C@H](Cc1ccccc1)NC(=O)[C@H](CCCCNC(=O)CN(CCN)C(=O)Cn1cnc2c(N)ncnc21)NC(=O)[C@H](CCCNC(=N)N)NC(=O)[C@H](CCCNC(=N)N)NC(=O)[C@H](Cc1ccccc1)NC(C)=O)[C@@H](C)CC)[C@@H](C)CC)C(N)=O` [TIM 15] (Ac-FRRK(PNA(A))FRLGGGGGGGKD(OMe)AQNLIGISI-NH2), for which the “apoptosis of peripheral blood lymphocytes” value in [1] was “do not induce apoptosis”. Besides, the “blastogenic response to mitogens” value in data set [1] was “do not drastically limit the blastogenic response”. Also, the inhibition at 15 µM at PKC alpha (15.0 μM, read-out: % Inhibition PKC-α) stood at 32.1%; on PKC delta (15.0 μM, read-out: % Inhibition PKC-δ), 18.6%; on PKC beta 1 (15.0 μM, read-out: % Inhibition PKC-βI), 18.8%; at PKC epsilon (15.0 μM, read-out: % Inhibition PKC-ε), 9%. In addition, the inhibition at 30 µM at PKC alpha (30.0 μM, read-out: % Inhibition PKC-α) is 21.8%; at PKC delta (30.0 μM, read-out: % Inhibition PKC-δ) it was 21.8%; on PKC beta 1 (30.0 μM, read-out: % Inhibition PKC-βI), -69%; at PKC epsilon (30.0 μM, read-out: % Inhibition PKC-ε), 81%.
`COc1cccc2c1C(=O)c1c(O)c3c(c(O)c1C2=O)C[C@@](O)(C(=O)CO)C[C@@H]3O[C@H]1C[C@H](N)[C@H](O)[C@H](C)O1` [doxorubicin]: the cell survival entry in data set [2] is “a large proportion of the cells survived”.
As for “Ac—FRRCFRL—(G)7—AKGIQEVKGGDAQNLIGISI—NH2 (Ac-FRRCFRLGGGGGGGAKGIQEVKGGDAQNLIGISI-NH2) [TIM 18, PRE 3 and PKI 4]”, the “% Inhibition PKC-α” value with PKC alpha (2.5 μM) is recorded as 16.4%. Further, the “inhibition of PKC alpha activity (in words)” value in the data set with PKC alpha is recorded as “very potent inhibitor”. The “% Inhibition PKC-δ” value in the data set with PKC delta (5.0 μM) stood at 56.3%; in the data set with PKC delta (30.0 μM), 85.1%. For the same compound, the “inhibition of PKC delta activity (in words)” value with PKC delta is reported as “inhibits the activity”. Moreover, in the data set with PKC beta 1, the “inhibition of PKC beta 1 activity (in words)” value was “inhibits the activity”. The “inhibition of PKC epsilon activity (in words)” value in the data set with PKC epsilon (Kinase-Glo) is on record as “no effect”.
On to “Ac—FRRCFRL—(G)7—KDAQNLIGISI—NH2 (Ac-FRRCFRLGGGGGGGKDAQNLIGISI-NH2) [TIM 21, PRE 4 and PKI 4]”, for which the results for the “% Inhibition PKC-α” value with PKC alpha (15.0 μM) and with PKC alpha (30.0 μM) were 64.3% and 95.2%, respectively. Besides, in the data set with PKC alpha, the “inhibition of PKC alpha activity (in words)” value is listed as “at a lesser extent”. Besides, in the data set with PKC delta (2.5 μM), the “% Inhibition PKC-δ” value was determined as 26.2%. Moreover, the “inhibition of PKC delta activity (in words)” value with PKC delta is given as “exceptionally good inhibitor”. The results for the “% Inhibition PKC-βI” value with PKC beta 1 (5.0 μM) and with PKC beta 1 (30.0 μM) were 11% and 13.9%, respectively. Further, the “inhibition of PKC beta 1 activity (in words)” value with PKC beta 1 was “not active”. Further, the “% Inhibition PKC-ε” value is recorded as −5% with PKC epsilon (5.0 μM) and 52% in the data set with PKC epsilon (30.0 μM).
KDAQNLIGISL-NH2 [PRE 2]: the “Band Intensity” value stood at 0.917 with PKC-α [3] (75 μg); 0.192 with PKC-α [3] (300 μg); 0.0103 with PKC-α [4] (Example 3 (control 0.759)); 0.800 with PKC-β [5] (75 μg); 0.403 with PKC-β [5] (300 μg); 0.0322 with PKC-β [6]. Moreover, the “Inhibition (%)” value was 56.1% in the data set with PKC-α [3] (75 μg); 90.9% in the data set with PKC-α [3] (300 μg); 99.9% in the data set with PKC-α [4] (Example 3); 31.0% with PKC-β [5] (75 μg); 65.3% in the data set with PKC-β [5] (300 μg); 54.7% with PKC-β [6]. The “Relative Intensity (%)” value in the data set with PKC-α [3] (75 μg) is given as 43.9%; in the data set with PKC-α [3] (300 μg) it was 9.1%; with PKC-α [4] (Example 3), 0.135%; with PKC-β [5] (75 μg), 69.0%; with PKC-β [5] (300 μg), 34.7%; with PKC-β [6], 45.3%.
